Test results published in the RNAGym collection of RNA variant scans (doi:10.1073/pnas.2313332121).

B1: TPR t1 (parent)
chain: GACCAAUCUGCCCUCAGAGCUCGAGAACAUCUUCGGAUGCAGAGGAGGCAGGCUUCGGUGGCGCGAUAGCGCCAACGUCCUCAACCUCCAAUGCAUCCCACCACAUGAUGAUGCCUGAAGAGCCUUGGUUUUUUG

Variants of: B1
Test: polymerase ribozyme fitness, log enrichment relative to wild type (log ratio); higher = more active; in vitro selection for triplet polymerase activity
Summary of the method: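 Both subunits of a heterodimeric triplet polymerase ribozyme were given their own mutant library, built by PCR and transcribed. Each library was annealed with a biotinylated primer, the partner subunit and triplets, incubated frozen at −7 °C, and its extended constructs gel-excised, captured on streptavidin beads and amplified by RT-PCR, all in one round done in triplicate. Fitness is the logarithm of genotype enrichment relative to wild-type enrichment, with replicates averaged by inverse-variance weighting. That logarithm is base 2, and Illumina-sequenced genotypes needed ≥10 input reads and ≥1 read per output.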
For GACCAAUCUGGCCUCAGAGCUCGAGAUCAUCUUCGGAUGCAGAGGAGGAAGGCUUCGGUGGCGCGAUAGCGCCAACGUCCUCAUCCUCCAAUGCAUCCCACCACAUGAUGAUGACUGAAAAGCCAUGGUUUUUUG, the “polymerase ribozyme fitness (log ratio)” value was -5.59. In the case of GACCAAUCUGACCUCAGAGCUCGAGAACAUCUUCGGAUGCAGAGGAGACAGGCUUCGGUGGCGCGAUAGUGCCAACGUCCUCAACCUCCAAUGCAUCCCACCACAUGAUGAUGUCUGAAGAGCCUUGGUUUUUUG, the “polymerase ribozyme fitness (log ratio)” value is reported as -6.22. With GACCAAUCUGACCUCAGAGCUCGAGAACAUCUUCGGAUGCAGAGGAGGCAGGCUUCGGUGGCGCGAUAGCGCCAACGUCCUCAACCACCAAUGCAUCCCACCACAUGAUGAUGCCUGAAGAGCCUUGGUUUUUUG the “polymerase ribozyme fitness (log ratio)” value was -1.66. With GACCAAUCUGACCUCAGAGCUCGAGAACAUCUUCGGAUGCAGAGGAGGCAGGCUUCGGUGGCGCGAUAGCGCCAACGUCCUCAACCUCCAAUGCAUCCCACCACAAGAUUAUGCCUGAAGAGCCUUGGUUUUUUG the “polymerase ribozyme fitness (log ratio)” value was -1.4. With GACCAAUCUGACCUCAGAGCUCGAGAACAUCUUCGGAUGCAGAGGAGGCAGGCUUCGGUGGCGCGAUAGCGCCAACGUCCUCAACCUCCAAUGCAUCCCACCACAUGAUGAUGCCAGAAGAGCCUUGGUUUUUUG the “polymerase ribozyme fitness (log ratio)” value was -4. For GACCAAUCUGGCCUCUGAGCUCGAGAAGAUCUUCGGAUGCAGAGGAGGCAGGCUUCGGUGGCGCGAUAGCGCCAACGUCCUCAACCUCCAAUGCAUCCCACCACAUGAUGAUGCCUGAAGCGCCUUGGUUUUUUG, the “polymerase ribozyme fitness (log ratio)” value was -0.982. In the case of GACCAAUCUGGCCUCUGAGCUCGGGAACAUCUUCGGAUGCAGAGGACGCAGGCUUCGGUGGCGCGAUAGCGACAACGUCCUCAACCUCCAAUGCAUCCCACCACAUGAUGCUGCCUGAAGAGCCUUGGUUUUUUG, the “polymerase ribozyme fitness (log ratio)” value is reported as -7.64. For GACCAAUCUGACCUCAGAGCUCGAGAACAUCUUCGGAUGCAGAGGAGGCAGGCUUCGGUGGCGCGAUAUCGCCAACGUCCUCAACCUCCAAUGCAUACCAACAAAUGAUGAUGCCUGAAGAGCCUUGGUUUUUUG, the “polymerase ribozyme fitness (log ratio)” value was -3.94. For GACCAAUCUGACCUCAGAGCUCGAGAACAUCUUCGGAUGCAGAGGAUGCAGGCUUCGGUGGCGCGAUAGCACCAACGUCCUCGACCUCCAAUGCAUCCCACCACAUCAUGAUGCCUGAAGAGCUUUGGUUUUUUG, the “polymerase ribozyme fitness (log ratio)” value was -7.17. With GACCAAUCUGACCUCAGAGCUCGAGAACAUCUUCGGAUGCAGAGGAGGCAGGCUUCGGUGGCGCGAUAGCUCCAACGUCCUCAACCUCCAAUGCAUCCCACCAAAUGAUGAUGCCUGAAGAGCCUUGGGUUUUUU the “polymerase ribozyme fitness (log ratio)” value was -5.56. In the case of GACCAAUCUGACCUCAGAGCUCGAGAACAUCUUCGGAUGCAGAGGACGCAGGCUUCGGUGGCGCGAUAGCGGCAACGUCCUCAACCUCCAAUGCAUCCCACCACAUGAUGAUGCCUGAAGAGCCUUGGUUUUUUG, the “polymerase ribozyme fitness (log ratio)” value is reported as -3.64. For GACCAAUCUGGCCUCAGCGCUCGAGAACAUCUUCGGAUGCAGAGGAGGCAGGCUUCGGUGGCGCGAUAGCGCCAACGUCCUCAACCUCCAAUGCAUCCCACCACAUGAUGAUGCCUGAAGAGCCUUGGUUUUUUG, the “polymerase ribozyme fitness (log ratio)” value was -1.71. In the case of GACCAAUCUGACCUCAGAGCUCGAGAACAUCUUCGGAUGCAGAGGAGGCAGCCUUAGGUGGCGCGAUAGCGCCAACGUCCUCAACCUCCAAUGCAUCCCACCACAUGAUGAUGCCUGAAGAGCCUUGGUUUUUUG, the “polymerase ribozyme fitness (log ratio)” value is reported as -2.98. With GACCAAUCUGACCUCAGAGCUCGAGAACAUCUUCGGAUGCAGAGGAGGCAGGCUUCGGUGGCGCGAUAUCGCCAACGUCCUCAACCUCCAAUACAUCCCACCACAUGAUGAUGCCUGAAGAGCCUUGUUUUUUUG the “polymerase ribozyme fitness (log ratio)” value was -3.27. For GACCAAUCUGACCUCAGAGCUCGAGAACAUCUUCGGAUGCAGAGGAGGCAGGCUUCGGUAGCGCGAUAGCGCCAACGUCCUCAACCUCCAAUGCAUCCCACCACAUGAUGAAGCCUGUAGAGCCUUGGUUUUUUG, the “polymerase ribozyme fitness (log ratio)” value was 0.704. For GACCAAUCUGGCCUCAGGGCUCGAGAACAUCUUCGGAUGCAGAGGAGGCAGGCUUCGGUGGCGCGAUAGCGCCAACGUCCUCAACCUCUAAUGCAACCCACCACAUGAUGAUGCCUGAAGAGCCUUGGUUUUUUG, the “polymerase ribozyme fitness (log ratio)” value was -4.23. For GACCAAUCUGACCUCAGAGCUCGAGAACAUCUUCGGAUGCAGAGGAGGCAGGCGUCGGUGGCGCGAUAGCGCCAACGUCCACAACCUCCAAUGCAUCCCACCACAUGAUGAUGCCUGAAGAGCCUUGGUUUUUUG, the “polymerase ribozyme fitness (log ratio)” value was -2.11. For GACCAAUCUGGCCUCAGCGCUCGAGAACAUCUUCGGAUGCAGAGGAGGCAGGCUUCGGUGGCGCGAUAGCGCCAACGUCCUCAACCUCCAAUGCAUCCCACCACAUGAUGAUGCCUGAAGAGCCAUGGUUUUUUG, the “polymerase ribozyme fitness (log ratio)” value was -2.13. In the case of GACCAAUCUGACCUCAGAGCUCGAGAACAUCUUCGGAUGCAGAGGAGUCAGGCUUCGGUUGCGCGAUAGCGCCAACGUCCUCAACCUCCAAUGCAUCCCACCACAUGAUGAUGCCUGAAGAGACUUGGUUUUUUG, the “polymerase ribozyme fitness (log ratio)” value is reported as 0.672. In the case of GACCAAUCUGACCUCAGAGCCCGAGAACAUCUUCGGAUGCAGAGGAGGCAGCCUUCGGUGGCGCGAUAGCGCCAACGUCCUCAACCUCCAAUGCAUCCCACCACAUGAUGAUGCCUGAAGCGCCUUGGUUUUUUG, the “polymerase ribozyme fitness (log ratio)” value is reported as 0.244. In the case of GACCAAUCUGACCUCAGAGCUCGAGAACAUCUUCGGAUGCAGAGGAGGCAGGCUUCGGUGGCGCGACAGCGCCAACGUCCUCAACCUCCAAUGCAUCCCACCACAUGAUGAUGCCUGAAGAGCCUUGGUUUUUUG, the “polymerase ribozyme fitness (log ratio)” value is reported as -5.83.
